The text below walks through data of patent US20190218277A1 (Chugai, published 2019).

Substitutions are numbered along the chain they refer to. Like-named read-outs stand apart in the source and are kept apart here.

The target of one assay is T1, mouse FcγRIII (mouse, UniProt P08508 31-215).
T1 construct: also called mFcγRIII; mouse FcγR3
T1 chain: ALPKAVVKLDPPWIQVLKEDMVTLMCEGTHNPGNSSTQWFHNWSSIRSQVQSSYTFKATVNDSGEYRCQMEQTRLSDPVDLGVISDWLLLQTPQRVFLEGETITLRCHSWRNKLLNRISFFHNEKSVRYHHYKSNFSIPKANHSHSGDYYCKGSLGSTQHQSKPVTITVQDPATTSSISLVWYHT
Description: SPR (Biacore T200, pH 7.4, 25 °C): His-tagged FcγR captured by anti-His antibody; antibody injected at 100 nM alone (Ab alone) or as 1:1 complex with trimeric CD154 (CD154 IC); binding level / capture level [C]. Background: SPR reads the build-up and loss of mass on a sensor chip optically.

The target of another assay is T2, human FcγRIIb (human, UniProt P31994 43-217).
T2 construct: also called human FcγR2b
T2 sequence: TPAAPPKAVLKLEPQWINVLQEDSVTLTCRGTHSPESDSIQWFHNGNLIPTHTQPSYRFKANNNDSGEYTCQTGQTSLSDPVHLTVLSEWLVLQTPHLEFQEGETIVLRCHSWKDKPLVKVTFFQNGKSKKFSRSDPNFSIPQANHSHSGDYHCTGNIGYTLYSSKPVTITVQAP
Briefly: SPR (Biacore T200, pH 7.4, 25 °C): His-tagged FcγR captured by anti-His antibody; antibody injected at 100 nM alone (Ab alone) or as 1:1 complex with trimeric CD154 (CD154 IC); binding level / capture level [D].

In the next assay the target is T3, mouse FcγRI (mouse, UniProt P26151 25-297).
T3 construct: also called mFcγRI; mouse FcγR1
T3 sequence: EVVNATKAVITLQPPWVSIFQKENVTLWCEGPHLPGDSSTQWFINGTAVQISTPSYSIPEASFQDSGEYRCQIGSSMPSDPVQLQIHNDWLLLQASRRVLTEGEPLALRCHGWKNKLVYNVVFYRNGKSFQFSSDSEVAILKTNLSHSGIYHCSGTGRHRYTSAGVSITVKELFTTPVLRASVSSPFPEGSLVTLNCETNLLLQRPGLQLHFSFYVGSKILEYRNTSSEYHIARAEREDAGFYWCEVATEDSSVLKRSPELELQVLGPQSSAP
Briefly: SPR (Biacore T200, pH 7.4, 25 °C): His-tagged FcγR captured by anti-His antibody; antibody injected at 100 nM alone (Ab alone) or as 1:1 complex with trimeric CD154 (CD154 IC); binding level / capture level [A].

Another assay concerns the target T4, human FcγRIIIa (158F) (human, UniProt P08637 17-208).
T4 construct: also called human FcγR3a allelic variant 158F
Briefly: SPR (Biacore T200, pH 7.4, 25 °C): His-tagged FcγR captured by anti-His antibody; antibody injected at 100 nM alone (Ab alone) or as 1:1 complex with trimeric CD154 (CD154 IC); binding level / capture level [E].

In another assay the target is T5, human FcγRIIIb (NA2) (human, UniProt O75015 17-200).
T5 construct: also called human FcγR3b allelic variant NA2
T5 chain: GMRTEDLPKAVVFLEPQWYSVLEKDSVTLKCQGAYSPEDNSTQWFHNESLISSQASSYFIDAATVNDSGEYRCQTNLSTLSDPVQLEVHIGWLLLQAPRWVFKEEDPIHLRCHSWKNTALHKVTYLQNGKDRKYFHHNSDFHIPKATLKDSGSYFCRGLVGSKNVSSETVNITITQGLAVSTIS
Description: SPR (Biacore T200, pH 7.4, 25 °C): His-tagged FcγR captured by anti-His antibody; antibody injected at 100 nM alone (Ab alone) or as 1:1 complex with trimeric CD154 (CD154 IC); binding level / capture level [H].

For another assay, the target named is T6, mouse FcγRIV (mouse, UniProt A0A0B4J1G0 21-203).
T6 construct: also called mFcγRIV; mouse FcγR4
T6 sequence: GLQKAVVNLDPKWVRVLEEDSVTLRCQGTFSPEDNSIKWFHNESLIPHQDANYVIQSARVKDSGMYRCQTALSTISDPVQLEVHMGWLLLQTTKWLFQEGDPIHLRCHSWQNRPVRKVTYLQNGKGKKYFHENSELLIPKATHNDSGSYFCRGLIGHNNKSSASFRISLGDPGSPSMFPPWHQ
Briefly: SPR (Biacore T200, pH 7.4, 25 °C): His-tagged FcγR captured by anti-His antibody; antibody injected at 100 nM alone (Ab alone) or as 1:1 complex with trimeric CD154 (CD154 IC); binding level / capture level [D].

A further assay addresses human C1q (Calbiochem) (human, UniProt P02745 23-245; P02746 28-253; P02747 29-245). Briefly: ELISA: antibody coated on the plate at the concentration shown, human C1q added, detected with HRP anti-human C1q, OD 450 nm. For orientation: In an ELISA, binding on a coated surface is turned into a signal by an enzyme label.
A further assay deals with T7, human FcγRIIIb (NA1) (human, UniProt O75015 17-200).
T7 construct: also called human FcγR3b allelic variant NA1
T7 chain: T5 chain with S20R, S49N, N66D, I90V
Description: SPR (Biacore T200, pH 7.4, 25 °C): His-tagged FcγR captured by anti-His antibody; antibody injected at 100 nM alone (Ab alone) or as 1:1 complex with trimeric CD154 (CD154 IC); binding level / capture level [G].

In a further assay the target is T8, human FcγRIIIa (158V) (human, UniProt P08637 17-208).
T8 construct: also called human FcγR3a allelic variant 158V
Briefly: SPR (Biacore T200, pH 7.4, 25 °C): His-tagged FcγR captured by anti-His antibody; antibody injected at 100 nM alone (Ab alone) or as 1:1 complex with trimeric CD154 (CD154 IC); binding level / capture level [F].

For another assay, the target named is T9, human FcγRIa (human, UniProt P12314 16-292).
T9 construct: also called human FcγR1a
T9 sequence (P12314 16-292 limits assumed): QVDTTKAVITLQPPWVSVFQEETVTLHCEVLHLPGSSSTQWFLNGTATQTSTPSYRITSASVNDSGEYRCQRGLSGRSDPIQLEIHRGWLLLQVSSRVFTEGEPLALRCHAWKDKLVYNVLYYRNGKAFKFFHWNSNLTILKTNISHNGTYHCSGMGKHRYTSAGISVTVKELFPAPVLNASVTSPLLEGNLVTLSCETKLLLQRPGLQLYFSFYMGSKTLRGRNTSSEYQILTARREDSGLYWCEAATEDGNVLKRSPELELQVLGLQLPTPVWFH
Briefly: SPR (Biacore T200, pH 7.4, 25 °C): His-tagged FcγR captured by anti-His antibody; antibody injected at 100 nM alone (Ab alone) or as 1:1 complex with trimeric CD154 (CD154 IC); binding level / capture level [A].

Assay [1] concerns the target T10, Recombinant soluble E protein (0.8E-His) from DENV-1 (DENV-1, UniProt P27909 281-675).
T10 construct: also called DENV-1 E protein; DV1

In assay [2] the target is T11, Recombinant soluble E protein (0.8E-His) from DENV-2 (DENV-2, UniProt P14340 281-675).
T11 construct: also called DENV-2 E protein; DV2

Assay [3] concerns the target T12, Recombinant soluble E protein (0.8E-His) from DENV-4 (DENV-4, UniProt P09866 280-674).
T12 construct: also called DENV-4 E protein; DV4

Assay [4] addresses T10, Recombinant soluble E protein …. The source holds these as a separate data set.
Assay [5] addresses T13, Recombinant soluble E protein (0.8E-His) from DENV-3 (DENV-3, UniProt P27915 281-673).
T13 construct: also called DENV-3 E protein; DV3

Assay [6] addresses T13, Recombinant soluble E protein …. This is another data set of the same source.

Sequence of human C1q (Calbiochem) (P02745 23-245 limits assumed, chain 1 of 3): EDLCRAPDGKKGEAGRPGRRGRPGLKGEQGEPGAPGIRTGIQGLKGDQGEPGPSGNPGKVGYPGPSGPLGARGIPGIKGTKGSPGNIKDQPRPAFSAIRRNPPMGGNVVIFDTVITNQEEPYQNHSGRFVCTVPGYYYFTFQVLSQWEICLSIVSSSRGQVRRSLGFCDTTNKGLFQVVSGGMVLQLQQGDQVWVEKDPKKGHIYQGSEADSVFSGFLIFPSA
Sequence of human C1q (Calbiochem) (P02746 28-253 limits assumed, chain 2 of 3): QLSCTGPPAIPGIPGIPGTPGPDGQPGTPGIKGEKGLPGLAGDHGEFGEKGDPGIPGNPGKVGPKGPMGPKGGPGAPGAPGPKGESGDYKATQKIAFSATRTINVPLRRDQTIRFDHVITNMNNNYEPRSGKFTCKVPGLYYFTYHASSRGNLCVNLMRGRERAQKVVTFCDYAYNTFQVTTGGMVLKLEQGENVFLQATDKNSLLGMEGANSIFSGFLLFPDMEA
Sequence of human C1q (Calbiochem) (P02747 29-245 limits assumed, chain 3 of 3): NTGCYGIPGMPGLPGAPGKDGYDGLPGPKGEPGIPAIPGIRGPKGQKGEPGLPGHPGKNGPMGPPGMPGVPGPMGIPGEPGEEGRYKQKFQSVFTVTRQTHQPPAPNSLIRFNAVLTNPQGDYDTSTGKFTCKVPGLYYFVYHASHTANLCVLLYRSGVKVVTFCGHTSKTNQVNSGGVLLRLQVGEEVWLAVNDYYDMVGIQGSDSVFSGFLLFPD

B1: Anti-CD154 antibody (SLAPH0336a/SLAPL0336a) with Fc variant LALA+EFT (SG1090) (antibody, human IgG1, kappa, L234A L235A)
heavy: EVQLVESGGGSVKPGGSLKLSCAASGFTFSDHYMYWVRQTPEKRLEWVAIISGGGSYTSYPDSMKGRFTISRDNAKNILHLQMSSLKSEDTAMYYCTRESNGKPGFAYWGQGTLVTVSAASTKGPSVFPLAPSSKSTSGGTAALGCLVKDYFPEPVTVSWNSGALTSGVHTFPAVLQSSGLYSLSSVVTVPSSSLGTQTYICNVNHKPSNTKVDKRVEPKSCDKTHTCPPCPAPEAAGGPSVFLFPPKPKDTLMISRTPEVTCVVVDVEFEDPEVKFNWYVDGVEVHNAKTKPREEQYNSTYRVVSVLTVLHQDWLNGKEYKCKVTNKALPAPIEKTISKAKGQPREPQVYTLPPSREEMTKNQVSLTCLVKGFYPSDIAVEWESNGQPENNYKTTPPVLDSDGSFFLYSKLTVDKSRWQQGNVFSCSVMHEALHNHYTQKSLSLSP
light: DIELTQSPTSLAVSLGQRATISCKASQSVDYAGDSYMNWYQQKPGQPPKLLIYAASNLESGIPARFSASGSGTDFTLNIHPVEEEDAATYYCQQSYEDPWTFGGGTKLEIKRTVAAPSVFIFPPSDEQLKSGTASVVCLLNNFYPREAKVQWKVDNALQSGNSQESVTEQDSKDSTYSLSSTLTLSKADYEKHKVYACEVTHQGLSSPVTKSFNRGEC
On to B1, for which the binding result with mouse FcγRIII is listed as “binds”; with human FcγRIIb it was “binds”; with mouse FcγRI, “no binding (tested: 100 nM)”; with human FcγRIIIa (158F) it was “no binding (tested: 100 nM)”; with human FcγRIIIb (NA2), “no binding (tested: 100 nM)”; with mouse FcγRIV it was “no binding (tested: 100 nM)”. Besides, the binding result with human FcγRIIIb (NA1) is “no binding (tested: 100 nM)”; with human FcγRIIIa (158V), “binds”; with human FcγRIa, “binds”. Further, the EC50 (read off the curve) (usually the midpoint of the concentration-response curve) with human C1q (Calbiochem) was approximately 2 µg/mL.

B2: DG_3CH1047-SG182/3CL658-SK1 (antibody, human IgG1, kappa, V domains shown)
VH: QVQLVQSGPDVEKPGASVKVSCKASGYTFTSYYMHWVRQAPGQGLEWMGVINPRGGSRRSAQKFQGRITMTRDTSTSTVYMELSSLRSEDTAVYYCARGGEALFYDSYTTPFDGGSWWFDPWGQGSLVTVSS
VL: DIQLTQSPSSLSASVGDRVTFTCQASQEIRKYLNWYQQKPGKAPKLLIYDASELKTGVPSRFSGSGSGTDFTFTISSLQPEDVATYYCQQFEDLPITFGQGTRLQIKR
notes: also called 3Cam
Take B2: the equilibrium dissociation constant (Kd) (in general, a measure of binding affinity in units of concentration) was 3.51 nM in assay [1]; 0.765 nM in assay [2]; 9.11 nM in assay [3]; 2.98 nM in [4]; 3.82 pM in assay [5]; 5.01 pM in assay [6].
